Results from patent US20250296960A1, “PEPTIDE COMPOSITIONS AND METHODS OF USE THEREOF” (priority 2022, published 2025).
Numbered stars: 1 amine (or outer) side, 2 acyl side, 3 side chain; on linkers, the order of the positions; unused ones are H or OH. Square brackets hold non-standard residues; d marks the D form. Side chains are listed from the residue outwards. Ends that are not written are not given here. * marks the point of attachment. C18 = C18 fatty acid (C16-C22 fatty acids conjugated via γGlu/8-amino-3,6-dioxaoctanoic acid spacers); Biotin = O=C1N[C@H]2[C@H](CS[C@H]2CCCCC(=O)*)N1; γGlu = O=C(O)[C@H](CCC(=O)[*:2])N[*:1]; biotin‑maleimide = B1-MAL; AEEA = NCCOCCOCC(=O)O; Aib = CC(C)(N)C(=O)O; MAL = maleimide

T1: human glucose-dependent insulinotropic polypeptide receptor (GIPR), expressed on CHO-K1 cells (human, UniProt P48546 22-466)
T1 sequence (looked up): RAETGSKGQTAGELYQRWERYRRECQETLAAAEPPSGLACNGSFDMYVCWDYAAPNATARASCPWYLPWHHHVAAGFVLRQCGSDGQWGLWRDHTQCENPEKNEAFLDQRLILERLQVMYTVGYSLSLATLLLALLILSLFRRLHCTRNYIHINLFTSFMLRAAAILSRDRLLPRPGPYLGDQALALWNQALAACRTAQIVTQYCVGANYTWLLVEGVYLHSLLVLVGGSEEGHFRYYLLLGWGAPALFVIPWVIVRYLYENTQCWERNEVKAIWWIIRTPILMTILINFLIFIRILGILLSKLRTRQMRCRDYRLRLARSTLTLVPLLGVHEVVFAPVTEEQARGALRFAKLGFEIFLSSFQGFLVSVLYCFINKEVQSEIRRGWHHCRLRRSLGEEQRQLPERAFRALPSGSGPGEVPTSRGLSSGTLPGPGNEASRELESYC


Each binder was assayed against T1, human glucose-dependent insulinotropic … (assay: cell-based or functional assay).

**Q.** With H[Aib]QGTFTSDWSKYLDQQMAQDFVDWLINGGPSSGAPPPSC-NH2 [Peptide No. 12 (with C-terminal cysteine)] as the binder, how does the “Percentage change in EC50 relative to GIP at human GIPR (%)” value read?
**A.** 4%

What follows are binders tested against T2, human GLP-1 receptor (GLP-1R), expressed on CHO-K1 cells (human, UniProt P43220 24-463) (assay: cell-based or functional assay).

**Q.** H[Aib]QGTFTSDWSKYLDQQMAQDFVDWLINGGPSSGAPPPSC-NH2 [Peptide No. 12 (with C-terminal cysteine)] was tested. Which “Percentage change in EC50 relative to GLP-1 at human GLP-1R (%)” value did it give?
**A.** 303%

Target: T2, human GLP-1 receptor (GLP-1R), …
Experiment: cell-based or functional assay
Remark: another data set of the same source

**Q.** For H[Aib]QGTFTSDHSWYLDKWTAHDFVQWLINGGPSSGAPPPSC([MAL-AEEA-AEEA-γGlu-C18])-NH2 [Peptide No. 18A (peptide 18, A type: lipid at Cys40)], which “Percentage change in EC50 relative to GLP-1 at human GLP-1R (%)” value is on record?
**A.** 0%

**Q.** How did the “Percentage change in EC50 relative to GLP-1 at human GLP-1R (%)” value turn out when H[Aib]QGTFTSDWSKYLDQQMAQDFVDWLINGGPSSGAPPPSC([MAL-AEEA-AEEA-γGlu-C18])-NH2 [Peptide No. 12A (peptide 12, A type: lipid at Cys40)] was run?
**A.** 296%

**Q.** H[Aib]QGTFTSDASKYLDRDWTGDFVQWLIDGGPSSGAPPPSC([MAL-AEEA-AEEA-γGlu-C18])-NH2 [Peptide No. 32A (peptide 32, A type: lipid at Cys40)] was tested. Which “Percentage change in EC50 relative to GLP-1 at human GLP-1R (%)” value did it give?
**A.** 1%

What follows are binders tested against T3, human glucagon receptor (GCGR), expressed on CHO-K1 cells (human, UniProt P47871 26-477) (assay: cell-based or functional assay).
T3 sequence (P47871 26-477): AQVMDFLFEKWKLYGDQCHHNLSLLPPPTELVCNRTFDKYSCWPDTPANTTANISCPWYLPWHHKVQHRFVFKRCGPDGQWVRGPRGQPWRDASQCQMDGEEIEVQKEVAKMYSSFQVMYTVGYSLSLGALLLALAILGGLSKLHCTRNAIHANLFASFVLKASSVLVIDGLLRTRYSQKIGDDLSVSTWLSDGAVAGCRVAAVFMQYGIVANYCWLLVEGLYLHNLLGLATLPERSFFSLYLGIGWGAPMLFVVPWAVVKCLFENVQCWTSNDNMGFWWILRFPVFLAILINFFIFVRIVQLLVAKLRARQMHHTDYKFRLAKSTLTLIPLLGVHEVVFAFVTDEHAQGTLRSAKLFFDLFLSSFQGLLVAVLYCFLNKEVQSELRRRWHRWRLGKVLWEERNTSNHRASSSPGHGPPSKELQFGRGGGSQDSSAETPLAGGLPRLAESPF

**Q.** Which “Percentage change in EC50 relative to GCG at human GCGR (%)” value does the source give for H[Aib]QGTFTSDWSKYLDQQMAQDFVDWLINGGPSSGAPPPSC-NH2 [Peptide No. 12 (with C-terminal cysteine)] here?
**A.** 1200%

Target: T3, human glucagon receptor (GCGR), …
Experiment: cell-based or functional assay
Remark: another data set of the same source

**Q.** Which “Percentage change in EC50 relative to GCG at human GCGR (%)” value does the source give for H[Aib]QGTFTSDHSWYLDKWTAHDFVQWLINGGPSSGAPPPSC([MAL-AEEA-AEEA-γGlu-C18])-NH2 [Peptide No. 18A (peptide 18, A type: lipid at Cys40)] here?
**A.** 0%

**Q.** How did the “Percentage change in EC50 relative to GCG at human GCGR (%)” value turn out when H[Aib]QGTFTSDWSKYLDQQMAQDFVDWLINGGPSSGAPPPSC([MAL-AEEA-AEEA-γGlu-C18])-NH2 [Peptide No. 12A (peptide 12, A type: lipid at Cys40)] was run?
**A.** 15%

**Q.** How did the “Percentage change in EC50 relative to GCG at human GCGR (%)” value turn out when H[Aib]QGTFTSDASKYLDRDWTGDFVQWLIDGGPSSGAPPPSC([MAL-AEEA-AEEA-γGlu-C18])-NH2 [Peptide No. 32A (peptide 32, A type: lipid at Cys40)] was run?
**A.** 0%

Target: T1, human glucose-dependent insulinotropic …
Experiment: cell-based or functional assay
Remark: another data set of the same source

**Q.** With H[Aib]QGTFTSDYSK(Biotin)YLDYMMARDFVQWLIEGGPSSGAPPPSC([MAL-AEEA-AEEA-γGlu-C18])-NH2 [Peptide No. 5B (peptide 5, B type: lipid at Cys40 and biotin at Lys12)] as the binder, how does the “EC50 (nM), cAMP assay” value read?
**A.** 97.2 nM

**Q.** H[Aib]QGTFTSDYSK([AEEA-AEEA-γGlu-C18])YLDYMMARDFVQWLIEGGPSSGAPPPSC(biotin‑maleimide)-NH2 [Peptide No. 5C (peptide 5, C type: lipid at Lys12 and biotin at Cys40)] was tested. Which “EC50 (nM), cAMP assay” value did it give?
**A.** 24.2 nM

Target: T3, human glucagon receptor (GCGR), …
Experiment: cell-based or functional assay
Remark: another data set of the same source

**Q.** H[Aib]QGTFTSDYSK(Biotin)YLDYMMARDFVQWLIEGGPSSGAPPPSC([MAL-AEEA-AEEA-γGlu-C18])-NH2 [Peptide No. 5B (peptide 5, B type: lipid at Cys40 and biotin at Lys12)] was tested. Which “EC50 (nM), cAMP assay” value did it give?
**A.** 15.1 nM

**Q.** Which “EC50 (nM), cAMP assay” value does the source give for H[Aib]QGTFTSDYSK([AEEA-AEEA-γGlu-C18])YLDYMMARDFVQWLIEGGPSSGAPPPSC(biotin‑maleimide)-NH2 [Peptide No. 5C (peptide 5, C type: lipid at Lys12 and biotin at Cys40)] here?
**A.** 3.23 nM

Target: T2, human GLP-1 receptor (GLP-1R), …
Experiment: cell-based or functional assay
Remark: another data set of the same source

**Q.** H[Aib]QGTFTSDYSK(Biotin)YLDYMMARDFVQWLIEGGPSSGAPPPSC([MAL-AEEA-AEEA-γGlu-C18])-NH2 [Peptide No. 5B (peptide 5, B type: lipid at Cys40 and biotin at Lys12)] was tested. Which “EC50 (nM), cAMP assay” value did it give?
**A.** 0.18 nM

**Q.** Which “EC50 (nM), cAMP assay” value does the source give for H[Aib]QGTFTSDYSK([AEEA-AEEA-γGlu-C18])YLDYMMARDFVQWLIEGGPSSGAPPPSC(biotin‑maleimide)-NH2 [Peptide No. 5C (peptide 5, C type: lipid at Lys12 and biotin at Cys40)] here?
**A.** 0.0772 nM

Target: T1, human glucose-dependent insulinotropic …
Experiment: cell-based or functional assay
Remark: another data set of the same source

**Q.** For H[Aib]QGTFTSDHSWYLDKWTAHDFVQWLINGGPSSGAPPPSC([MAL-AEEA-AEEA-γGlu-C18])-NH2 [Peptide No. 18A (peptide 18, A type: lipid at Cys40)], which “Percentage change in EC50 relative to GIP at human GIPR (%)” value is on record?
**A.** 0%

**Q.** How did the “Percentage change in EC50 relative to GIP at human GIPR (%)” value turn out when H[Aib]QGTFTSDWSKYLDQQMAQDFVDWLINGGPSSGAPPPSC([MAL-AEEA-AEEA-γGlu-C18])-NH2 [Peptide No. 12A (peptide 12, A type: lipid at Cys40)] was run?
**A.** 8%

**Q.** How did the “Percentage change in EC50 relative to GIP at human GIPR (%)” value turn out when H[Aib]QGTFTSDASKYLDRDWTGDFVQWLIDGGPSSGAPPPSC([MAL-AEEA-AEEA-γGlu-C18])-NH2 [Peptide No. 32A (peptide 32, A type: lipid at Cys40)] was run?
**A.** 0%
